The series is described as follows: soluble on expression in E. coli; label from the status in PepcDB or PDB records.
For the sequence “MGSDKIHHHHHHMSREILRVENLVKHFPIRAGVFKRIVGWVKAVDGVSFSINEGETFGLVGESGCGKTTIGMTLLRLYEPTSGRIIVDNEDTTYYFMPRSKAKKYIKQTYLSRFVNMKESDVEKLEGVDREYARIFFEEAKGSPKKFMSILLDDLPEKRKKFRREMQIVFQDPYSSLNPRLRVKSIVGEGIVTHRIARGKEVEKRIKEILEDVGIPSAYVYRFPHEFSGGQRQRIGIARALALEPKLVVADEAVAALDVSIRSQIINLMEDLQREHKLTYIFISHDLAVVKHISDRIGVMYLGKMVELAPKKDLFEKPLHPYTVALMSAIPVPDPTKKRERIILKGDVPSPINPPSGCRFHTRCPIAKEICSKEEPAFREVEEGHFVACHFPGELR”, the “soluble on expression in E. coli” value is listed as “not soluble”. Take “MGSDKIHHHHHHMQDNLIEIRDLRVAFNGHEVVHGISLDIRRGECLALVGESGSGKSVTAHSILRLLPPKNVSTQGSIRYDGLDLVTASDKQLRSLRGNRVAMIFQEPMSSLNPLHTVEKQIGEILVTHKGLKGKAALSRTLELLELVGIREPLLRLKAYPHQLSGGQRQRVMIAMALANEPDLLIADEPTTALDVTVQVKILELLKSLQQRLNMSLLLISHDLNLVRRIAQRVCVMREGEIVEQADCQALFDNPQHPYSRLLINAEPDGEPVPSTHSNTLLSVQDLKVWFPLGKAWFQREQQYVKAVDGVSFELLKGKTLGIVGESGSGKSTLGQAILRLVDSEGSIRFGTKELSLHSQHLMRPLRRQLQVVFQDPFGSLSPRMTVEQIIAEGLVTHKIGTPKEREQTVIRVLQEVGLDPATRHRYPHEFSGGQRQRISIARALVLEPDLILLDEPTSALDRTVQKQIVALLRDLQIRHGLTYLFISHDLAVVHALAHDLIVIKDGKVVEQGPSREIFAAPQQAYTQELLRSSGLVFA”: the “soluble on expression in E. coli” value is recorded as “not soluble”. As to “MDFSLTEEQELLLASIRELITTNFPEEYFRTCDQNGTYPREFMRALADNGISMLGVPEEFGGIPADYVTQMLALMEVSKCGAPAFLITNGQCIHSMRRFGSAEQLRKTAESTLETGDPAYALALTEPGAGSDNNSATTTYTRKNGKVYINGQKTFITGAKEYPYMLVLARDPQPKDPKKAFTLWWVDSSKPGIKINPLHKIGWHMLSTCEVYLDNVEVEESDMVGEEGMGFLNVMYNFEMERLINAARSTGFAECAFEDAARYANQRIAFGKPIGHNQMIQEKLALMAIKIDNMRNMVLKVAWQADQHQSLRTSAALAKLYCARTAMEVIDDAIQIMGGLGYTDEARVSRFWRDVRCERIGGGTDEIMIYVAGRQILKDYQNK”, the “soluble on expression in E. coli” value is listed as “soluble”. In the case of “MSLTTMKEIAEQTGVSISTVSLVLNGRDEGRVNPALAKLVRNKATELGYKINPLARSLRTNKTRILGFISEEVATTPYAGGIILGAQDAASAYGYMLFTVSTDGKASEENEIATLKRYGVDGFFYSKMSNRIAHVPESLSDYPVVMVDATDYENKVPSVEPDEFMIGYDATIRLLQADCKRIAYVGCAENMIAQDGRLAGYCTALQEAGRAFNPSLVCNVMNDGPALRAVNKLFDDEHPDGFFCFNDARAWYVYECAARRGLTVGKDISVVGVDNHRVFAETLEPQLTTVELPHYEMGYWSACKLISMIEGKDVDTSEGHHHHHH”, the “soluble on expression in E. coli” value is “not soluble”. Consider “MGSDKIHHHHHHMMRPALRSTSTPKSPLVTCVSHDLTVSAPQGVFLSGLNTKFRAYVGGFGSGKTYVGCLDLGLFAGQHPKTVQGYFAPTYRDIRDTFWPTVDEAAHSLGFTTKVKSADKEVEFYRGRSYYGTTICRSMDDPGGIVGFKIARALVDEIDILSKDKAQAAWRKIIARMRLVLPGVVNGIGVTTTPEGFRFVYDSFKREPKSNYSMVQASTYENEAFLPPDYISTLLEDYPEELIKAYLMGEFVNLTSGTVYRSYDRLRHRSTQSIQPREPLHIGQDFNVGNMASVVFVQRGEDWHAVDELQGLQDTPHLIEVLCDRYEGHHLTIYPDASGSSRKTVNASTSDIELLRKAGHAIRAPSTNPAVKDRILAVNTAFENGRLFVNALRCKAYAEALEQQAYDKNGEPDKSAGLDHHPDAGGYFVHQKMPVVKPTFTRQELRL”, for which the “soluble on expression in E. coli” value is recorded as “not soluble”.

As for “MQLNATQLQAALPWDSLIEALKDIFVREVCSPVRHHHSINVPDKLSATLLLMPAWLEGEYLGIKQVNVFPSNNVSNIPALSSHYMLSCGKTGQPLMQLDGNELTARRTAAASALASAYLSREDARVMLMVGSGRMARRLITAHMSVRPIKIVQVWDRKEEKAQTLVTELKESGINAEVCKPDNLQAAAQQADIISCATMATSPLILGKWLKPGAHLDLVGSFTPTMRETDNAAMQLCSVFVDTRAGALSETGDLIIPIRDGAITQEKIIAEFTQLCSGEHRGRADLANPDNSITLFKSVGDSREDLAAAILAFEQCNQR”, the “soluble on expression in E. coli” value is “not soluble”. In the case of “MSLTESARIDGVSLYEIVIPMKIPFQISSGTCYTRRSLVVEIREGDLFGYGESAPFEEPFYLGETLETTKVILKNHLLPMILGKEPLSIEEFNHLIKNGIRGNHFARCGVENAYWDLIAKKNKISLKAMIEKKMKNLGVKQEYLASNNYIESGAALGIPEDGRIETLIHQVEESLQEGYRRIKIKIKPGWDVEPLQETRRAVGDHFPLWTDANSSFELDQWETFKAMDAAKCLFHEQPLHYEALLDLKELGERIETPICLDESLISSRVAEFVAKLGISNIWNIKIQRVGGLLEAIKIYKIATDNGIKLWGGTMPESGLGARFLISLASFRGFVFPADVAASEKWYGKGNDLVENTMTDGKIYVPDEPGASFDMTLSHLEALGKKIWESQRGEGHHHHHH”, the “soluble on expression in E. coli” value was “soluble”.

For the sequence “MTTKEITLDENGFATEAGFITVYNYSGETREYISTSTEYLAVGVGIPACSCLDAPVTHKAGYAICRSADFNSWEYVPDHRGEIVFSTETGESKEITAPGDYPDNTTTIAPLTPYDKWDGEKWVTDTEAQHSAAVDAAEAQRQSLIDTAMASISLIQLKLQAGRKLTQAETTRLNAVLDYIDAVTATDTSTAPDVIWPELPEA”, the “soluble on expression in E. coli” value is on record as “not soluble”. On to “MGSDKIHHHHHHMNYFATVARGLETLAAQELEQLGAHSVEPGFCGVAFEGDRTLLYRVNLWARLPFRILVDIHEFPCLDAKDLYRGIQTIDWQNYLTPDMTLAVNVTGKNAHLNHSHFTSLQVKNAIVDQQQEKLGERSNVELHEPDVRVNVHIERDFCTVKLDSSGNSLHRRGYRPAVGSAPLKESLAAALIQLSGWKQDQMFYDPLCGSGTLPLEASLKALNIAPGLFRESFGFENWLDFDLVLLEKLLQEAKDSQLDTLPAPIWGSDHDENVIEQAINNAQNCGVDNHVWFSQMELADVVAPADSGILLCNPPYGERLGRDSDLGAFYKLLGDVLKQRFKGWTAFVLSGNKELSQSIGLKSSKRIAVYNGALPCQLMKYELY”, for which the “soluble on expression in E. coli” value was “not soluble”.

For “TDNFSWSTNLNFSYNDNKIKELVDDLPNGLTLTDFGGAKVILKEGGHYGDLYVRHLMRDENGKPLQNEKGEPIVSGDSMDELEYAGNMNAKVNMGWTNTFRYKDFSLSFLIDAKFGGKVISMTEAALDGWGVSKRSGEARDAGGITVDGVKFDADKYYRTTGNNNFNSPYAVENYVYDATNIRLREVTFGYTFRNLLGAGKNLTAAIIGRNLFFFHKDAPMDPDVSAGTGNGIQGVDMFALPTSRSFGLNLKLNF”, the “soluble on expression in E. coli” value was “not soluble”. As for “MNKFVRLAAIAGLLLAGASYATDTTYRIDQLPQLRQEPEHATVSERVTSRFTRSHYRQFALDDQFSAKIFDRYLNMLDYSHNVLLASDVAQFADKKYSLDKELKSGQLDTPFALFNLAQKRRFERYQYALSVLDRPMVFTGNDTIDIDRAKAPWPSSEAELNALWDAKVKYDQLNLKLAGKTDKEIKETLTKRYQSAIKRLTQSNSEDVFQLIMNAFAREIDPHTNYLSPRNTEQFNTEMSLSLEGIGAVLQMDDDYTLINSMVPGGPAAKSKTIAVGDRVIGVGQAGKPMVDVIGWRLDDVVALIKGPKGSKVRLEILPAGKGTKPRTVTLTRERIRLEDRAVKMSVKTIGKERVGVLDIPGFYVGLTEDVKVQLQKLEKQNVSSIIIDLRSNGGGALTEAVSLSGLFIPSGPVVQVRDNNGKVREDSDTDGVVYYKGPLVVLVDRYSASASEIFAAAMQDYGRALIVGEPTFGKGTVQQYRSLNRIYDQMLRPEWPALGSLQYTIQKFYRVDGGSTQRKGVTPDIVMPTGVDPAETGENFEDNALPWDRINAASYTKTGDLKPWEPELLKNHAERIAANPEFQYIQKDIERYKALKDKRNIVSLNYAQREKENRDDDMTRLTRLNERFIREGKKPLKSLDDLPKDYQEPDPYLDETVNIALDLAHKEKAQPQIASRPVAAATAGATVK”, the entry is “not soluble”.
